From US20250361296A1 (BIOCYTOGEN PHARMACEUTICALS BEIJING, published 2025) come the findings set out here.

Experiment in all cases: flow cytometry, CHO-S cells expressing the target; as to Percentage of Positive Cells: test concentration or dose not given here
On the technique in general: In flow cytometry, cells or beads pass a laser one at a time.

The target of assay [1] is T1, human SIGLEC2 on CHO-S-hSIGLEC2 cells (human, UniProt P20273 20-687).
T1 sequence: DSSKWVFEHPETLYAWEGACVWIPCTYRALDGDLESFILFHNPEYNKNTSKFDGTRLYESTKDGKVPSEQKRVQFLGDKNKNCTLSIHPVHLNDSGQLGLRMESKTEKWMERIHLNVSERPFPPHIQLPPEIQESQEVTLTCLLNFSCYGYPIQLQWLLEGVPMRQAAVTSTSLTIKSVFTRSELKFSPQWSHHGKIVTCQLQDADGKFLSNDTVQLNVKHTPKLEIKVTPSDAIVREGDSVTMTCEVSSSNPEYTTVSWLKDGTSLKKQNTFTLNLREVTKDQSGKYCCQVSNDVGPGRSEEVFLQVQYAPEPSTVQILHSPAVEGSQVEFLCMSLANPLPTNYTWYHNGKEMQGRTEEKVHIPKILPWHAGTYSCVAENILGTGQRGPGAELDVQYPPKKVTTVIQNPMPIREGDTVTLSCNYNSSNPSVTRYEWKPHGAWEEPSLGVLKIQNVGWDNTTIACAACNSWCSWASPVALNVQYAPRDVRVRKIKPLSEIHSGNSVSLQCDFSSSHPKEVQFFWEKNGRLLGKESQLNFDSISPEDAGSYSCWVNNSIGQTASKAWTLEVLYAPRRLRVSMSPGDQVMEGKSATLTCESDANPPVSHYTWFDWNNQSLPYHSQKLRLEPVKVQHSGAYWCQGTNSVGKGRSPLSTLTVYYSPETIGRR
Here is the method: (§1) CHO-S-hSIGLEC15 cells, CHO-S-mSIGLEC15 cells, CHO-S-fasSIGLEC15 cells or CHO-S-dSIGLEC15 cells were transferred to a 96-well plate at a density of 5×10⁴ cells/well respectively. Serially diluted sample anti-SIGLEC15 antibodies were added to the 96-well plate, and incubated at 4° C. for 30 min. Then, the cells were incubated with the secondary antibody anti-hIgG-Fc-Alex Flour 647 (RL1-H) (Jackson ImmunoResearch Laboratories, Inc., 109-606-170) at 4° C. in the dark for 15 minutes before flow cytometry analysis.
(§2) Another similar experiment was performed to determine whether the anti-SIGLEC15 antibodies can bind with other SIGLEC family proteins. CHO-S-hSIGLEC1 cells (expressing hSIGLEC1, SEQ ID NO: 49)), CHO-S-hSIGLEC2 cells (expressing hSIGLEC2, SEQ ID NO: 50), CHO-S-hSIGLEC4 cells (expressing hSIGLEC4, SEQ ID NO: 51), CHO-S-hSIGLEC5 cells (expressing hSIGLEC5, SEQ ID NO: 52), CHO-S-hSIGLEC6 cells (expressing hSIGLEC6, SEQ ID NO: 53), CHO-S-hSIGLEC7 cells (expressing hSIGLEC7, SEQ ID NO: 54), CHO-S-hSIGLEC8 cells (expressing hSIGLEC8, SEQ ID NO: 55), CHO-S-hSIGLEC9 cells (expressing hSIGLEC9, SEQ ID NO: 56), CHO-S-hSIGLEC10 cells (expressing hSIGLEC10, SEQ ID NO: 57), CHO-S-hSIGLEC11 cells (expressing hSIGLEC11, SEQ ID NO: 58), CHO-S-hSIGLEC12 cells (expressing hSIGLEC12, SEQ ID NO: 59), CHO-S-hSIGLEC14 cells (expressing hSIGLEC14, SEQ ID NO: 60) or CHO-S-hSIGLEC16 cells (expressing hSIGLEC16, SEQ ID NO: 61) were used.

Assay [2] deals with human SIGLEC6 on CHO-S-hSIGLEC6 cells (human, UniProt O43699 27-347). Here is the method: as §1, §2
Assay [3] has as its target human SIGLEC9 on CHO-S-hSIGLEC9 cells (human, UniProt Q9Y336 18-348). Here is the method:
as §1, §2

Assay [4] has as its target T2, human SIGLEC10 on CHO-S-hSIGLEC10 cells (human, UniProt Q96LC7 17-550).
T2 sequence: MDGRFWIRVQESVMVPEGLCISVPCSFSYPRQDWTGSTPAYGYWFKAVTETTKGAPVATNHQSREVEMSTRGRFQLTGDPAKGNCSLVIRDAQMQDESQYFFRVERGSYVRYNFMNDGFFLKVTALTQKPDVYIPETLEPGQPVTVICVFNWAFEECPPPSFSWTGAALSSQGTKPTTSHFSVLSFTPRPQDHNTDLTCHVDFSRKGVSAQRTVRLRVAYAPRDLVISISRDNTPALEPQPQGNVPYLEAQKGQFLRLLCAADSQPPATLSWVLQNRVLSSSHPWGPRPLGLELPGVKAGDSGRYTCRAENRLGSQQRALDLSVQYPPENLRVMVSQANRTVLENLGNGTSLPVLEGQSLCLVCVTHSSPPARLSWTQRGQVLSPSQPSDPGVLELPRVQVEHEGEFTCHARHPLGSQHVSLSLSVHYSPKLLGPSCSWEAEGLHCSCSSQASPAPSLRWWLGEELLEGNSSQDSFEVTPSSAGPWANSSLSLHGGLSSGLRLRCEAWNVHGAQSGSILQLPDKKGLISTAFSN
Here is the method:
as §1, §2

For assay [5], the target named is T3, human SIGLEC16 on CHO-S-hSIGLEC16 cells (human, UniProt A6NMB1 17-434).
T3 chain: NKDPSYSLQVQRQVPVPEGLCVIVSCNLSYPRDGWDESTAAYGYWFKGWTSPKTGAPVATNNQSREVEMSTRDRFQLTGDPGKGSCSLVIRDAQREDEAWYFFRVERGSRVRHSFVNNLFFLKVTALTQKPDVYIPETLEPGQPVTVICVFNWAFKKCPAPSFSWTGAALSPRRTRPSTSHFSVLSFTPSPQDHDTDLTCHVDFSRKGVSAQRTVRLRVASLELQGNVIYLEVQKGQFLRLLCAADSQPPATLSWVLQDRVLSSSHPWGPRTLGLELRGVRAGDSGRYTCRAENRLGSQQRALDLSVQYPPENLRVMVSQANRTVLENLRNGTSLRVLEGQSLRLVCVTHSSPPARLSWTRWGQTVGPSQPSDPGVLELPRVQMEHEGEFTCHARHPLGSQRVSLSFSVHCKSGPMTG
How it is done:
as §1, §2

Sequence of human SIGLEC9 on CHO-S-hSIGLEC9 cells (Q9Y336 18-348): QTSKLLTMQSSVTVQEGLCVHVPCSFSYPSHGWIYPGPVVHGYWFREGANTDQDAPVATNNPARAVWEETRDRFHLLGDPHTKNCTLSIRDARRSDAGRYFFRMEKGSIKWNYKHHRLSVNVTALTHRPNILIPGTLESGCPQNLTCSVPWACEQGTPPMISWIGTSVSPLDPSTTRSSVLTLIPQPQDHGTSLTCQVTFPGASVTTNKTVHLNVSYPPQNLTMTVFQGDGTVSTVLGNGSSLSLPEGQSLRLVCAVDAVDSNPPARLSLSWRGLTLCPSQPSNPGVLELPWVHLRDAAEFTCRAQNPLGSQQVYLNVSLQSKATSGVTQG
Sequence of human SIGLEC6 on CHO-S-hSIGLEC6 cells (O43699 27-347): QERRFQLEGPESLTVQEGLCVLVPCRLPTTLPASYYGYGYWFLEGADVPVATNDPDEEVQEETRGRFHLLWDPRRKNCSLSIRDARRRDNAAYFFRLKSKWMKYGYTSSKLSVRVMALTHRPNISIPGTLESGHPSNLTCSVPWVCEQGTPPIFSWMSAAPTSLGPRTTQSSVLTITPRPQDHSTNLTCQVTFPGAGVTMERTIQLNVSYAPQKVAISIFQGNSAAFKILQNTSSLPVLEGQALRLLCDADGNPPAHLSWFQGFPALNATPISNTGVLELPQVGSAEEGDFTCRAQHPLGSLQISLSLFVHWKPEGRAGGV

B1: anti-SIGLEC15 antibody 10A7 (antibody, human IgG1, V domains shown)
VH: EVQLVQSGGGLVQPGGSLRLSCAASGFTFSNYEMNWVRQAPGKGLEWISYISNSGSTIYYADSVKGRFTISRDDAKNSLYLQMNSLRAEDTAVYYCAREDYDSSGYYWFDPWGQGTPVTVSS
VL: DIQLTQSPSSVSASVGDRVTITCRASQGISSWLAWYQQKPGKAPKLLIYAASSLQSGVPSRFSGSGSGTDFTLTINSLQPEDFATYYCQQTNSFPLTFGGGTKVEIK
As for B1, the “Percentage of Positive Cells” value in assay [1] was found to be 0%; in assay [2], 0.7%; in assay [3], 0.3%; in assay [4], 1.4%; in assay [5], 0.2%. For the same molecule, the binding result in assay [1], in assay [2], in assay [3], in assay [4] and in assay [5] was “no binding” each time.

B2: anti-SIGLEC15 antibody 10C9 (antibody, human IgG1, V domains shown)
VH: QVQLVQSGAEVKKPGATVKVSCKASGYTFTNYGFSWVRQAPGQGLEWMGWINTYNDNTNYAQKFQGRVTMTTDTSTSTAYMELRSLRSDDTAVYYCARDGLWFGELPHYFDYWGQGTLVTVSS
VL: DIQLTQSPLSSPVTLGQPASISCRSSQSLVNSDGETFLSWLQQRPGQPPRLLIYKISNRFSGVPDRFSGSGAGTDFTLKISRVEAEDVGVYYCMQATQFPHTFGQGTKLEIK
In the case of B2, the “Percentage of Positive Cells” value in assay [1] was found to be 0.3%; in assay [2], 0.5%; in assay [3], 0.1%; in assay [4] it was 1.5%; in assay [5], 0.2%. Also, the binding result in assay [1], in assay [2], in assay [3], in assay [4] and in assay [5] was “no binding” throughout.

B3: anti-SIGLEC15 antibody 23F4 (antibody, human IgG1, V domains shown)
VH: QVQLQQWGAGLLKPSETLSLTCAVYGGSFSGYFWSWIRQPPGKGLEWIGEINHSGSTNYNPSLKSRVTLSVDTSKNQFSLKLSSVTAADTAVYYCAREGDSSSWGNWFDPWGQGTLVTVSS
VL: EIVLTQSPGTLSLSPGERATLSCRASQSVSSSYLAWYQQKPGQAPRFLIYGASSRATGIPDRFSGSGSGTDFTLTISRLEPEDFAVYYCQQFGNSPLTFGGGTKVEIK
As for B3, the “Percentage of Positive Cells” value was 1.8% in assay [1]; 1.5% in assay [2]; 0.7% in assay [3]; 1.6% in assay [4]; 1.3% in assay [5]. The binding result in assay [1], in assay [2], in assay [3], in assay [4] and in assay [5] was “no binding” each time.
